Here are results for 1 protein from PMC7721705, “The G protein coupled receptor CXCR4 designed by the QTY code becomes more hydrophilic and retains cell signaling activity” (Scientific Reports, 2020).

This series concerns the molecule itself. Nature of the series: dimer bands on SDS-PAGE (Western blot with rho1D4 antibody, silver stain); immunoaffinity-purified receptors in 0.01% or 0.2% detergent; Novex 10% Bis-Tris gels, samples kept at room temperature 10 min, not boiled. For orientation: Immunoblotting shows a protein as a band on a membrane.

B1: CXCR4^QTY29 with C-terminal GSSG linker and rho1D4 tag (receptor, UniProt P61073 1-352, looked up)
chain: MEGISIYTSDNYTEEMGSGDYDSMKEPCFREENANYNKTFLPTIYSIIYQTGTVGNGLVILVMGYQKKLRSMTDKYRLHLSTADLQFVTTLPYWATDATANWYFGNFLCKAVHVIYTVNLYSSVLILAFISLDRYLAIVHATNSQRPRKLLAEKVVYVGVWTPAQLLTTPDYTFANVSEADDRYICDRFYPNDLWVVVFQFQHIMVGLILPGIVILSCYCIIISKLSHSKGHQKRKALKTTTTLIQAFFACWQPYYTGISIDSYILLEIIKQGCEFENTVHKWISTTEAQAFYHCCTNPTQYAYLGAKFKTSAQHALTSVSRGSSLKILSKGKRGGHSSVSTESESSSFHSS
notes: CXCR4, UniProt P61073, with 29 QTY replacements of lipid-facing transmembrane residues; also called QTY variant; source: E. coli cell-free reaction mix (pIVex2.3) with Brij-35; captured from crude supernatant (SPR); not shown: rho1D4 tag (after a GSSG linker), C-terminal, kept
In the case of B1, the binding result was “binds”.
